Source: US10131920B2, “Nucleic acid molecules” (MEDIMMUNE LIMITED, priority 2013, dated 2018)

Tests used:
[1] = test system: GFPY40 reporter (GFP containing an amber codon) in HEK293 cells stably expressing pylRS; experiment: Amber suppression-dependent GFP expression (GFPY40 reporter), transient transfection, flow cytometry; type: cell-based
Experimental: (§1) To assess the function of the tRNA variants, an in vitro assay was established where cells are transiently transfected with a tRNA construct and a reporter construct encoding GFP containing an amber codon interrupting its reading frame (GFPY40). HEK293 cells stably expressing pylRS were transiently transfected with various tRNA constructs (1 ug) and the GFPY40 reporter (1 ug). In the absence of elements that support amber suppression, a truncated GFP protein is generated and the cell is not fluorescent. However, the introduction of a functional tRNA and the presence of a nnAA that supports amber suppression allows for the production of full length GFP resulting in fluorescent cells. The level of GFP expression reflects the efficiency of amber suppression and is quantified by flow cytometry. tRNA genes encoding wild type tRNApyl (WT tRNA), or containing mutations in the B-box (B tRNA—SEQ ID No 9), in both the A and B box (A2B tRNA—SEQ ID No 10), or in the A box (A1 tRNA-SEQ ID No 7; or A2 tRNA SEQ ID No 11), all under control of the H1 promoter were generated by site directed mutagenesis and assayed. The H1 promoter ensured that the variants were expressed and allowed us to examine the functional effects of the mutations introduced into the tRNA genes. In addition a sample transfected with GFPY40 alone was generated to establish background GFP levels. The transfected cells were grown in presence of the aminoacid analogue lys azide (2 mM) and incubated for 18 hours. GFP fluorescence was then assayed by flow cytometry and mean fluorescence intensity determined for each sample. Data were analysed with FCS Express and the mean fluorescence intensity of each sample determined using markers that constrain the data set to cells showing fluorescence above negative controls.
To begin to assess whether the tRNA mutations can support expression of the tRNA we assayed tRNA constructs encoding the wild type tRNA in the absence of the H1 promoter. Constructs encoding wild type tRNApyl (WT tRNA) or containing mutations in the B-box (B tRNA—SEQ ID No 9) or in both the A and B box (A2B; A2B tRNA—SEQ ID No 10) were assayed using our in vitro amber suppression assay described above. WT tRNA under control of the H1 promoter (H1-tRNA) was used as a positive control, and in addition one sample was transfected only with the GFPY40 reporter to illustrate background amber suppression in the absence of tRNA. The transfected cells were exposed to 2 mM lys-azide nnAA and cells incubated for three days. GFP expression was examined by flow cytometry and mean fluorescence intensity determined.
Two copies of the WT, B, or A2B tRNA were cloned in tandem to generate a single vector containing two copies of WT, B, or A2B tRNA. To assess the effect of increased gene doses by these constructs, cells expressing WTpylRS were transiently transfected with the tRNA constructs and the GFPY40 reporter construct and GFP expression assayed after two days.
The activity of each construct was assessed by transient transfection into cells stably expressing WT pylRS with the GFPY40 reporter as described above. For this experiment, 1 ug of a PCR product encoding each of the indicated constructs was used. In each case, cells were exposed to the lys azide nnAA for three days and GFP levels assayed by flow cytometry. Mean fluorescence intensities were determined for each sample and plotted (FIG. 8).

[2] = test system: GFPY40 reporter in 3H7 cells; experiment: Amber suppression-dependent GFP expression (GFPY40 reporter), transient transfection of 3H7 cells, flow cytometry; type: cell-based; settings: 1 ug GFPY40 and 1 ug tRNA expression vector, lys-azide, three days
Experimental: as §1, with “controls. […] The constructs thus are functional and may contain the necessary genetic sequence to enable the expression of the tRNA also in the absence of an upstream promoter element such as the H1 promoter.” for “controls.”
Having established that the B mutation introduced into the pyltRNA sequence enabled expression of the tRNA that supported amber suppression we then asked whether this mutation affected the orthogonality of the tRNA and led to the incorporation of natural amino acids. To do this 3H7 cells were transiently transfected with expression constructs encoding WT-tRNA, B-tRNA, H1-tRNA and H1-B tRNA along with the GFPY40 reporter. Transfected cells were grown in the presence of 2 mM lys azide or absence of nnAA as indicated (FIG. 6), and GFP expression assessed by flow cytometry after three days. In addition, a sample transfected only with GFPY40 was examined to determine background amber suppression levels in the absence of tRNA. […] A comparison of GFP expression between the WT tRNA (MFI 33,781) and tRNA B (232,505) lacking extragenic promoter elements confirms that the B mutation generates a functional intragenic promoter. Indeed, the B tRNA construct enabled a seven-fold increase in the level of amber suppression dependent expression of GFP over WT tRNA.
We also tested the utility of a bicistronic tRNA expression construct for its ability to express tRNApyl. Here, the murine tRNA Glu and tRNA Asp were utilized. In each case, multiple repeats of the constructs were generated to increase activity (3×Glu-pyl and 2×Asp-pyl). Here, 3H7 cells were transiently transfected with 1 ug of the reporter construct GFPY40 and 1 ug of the indicated tRNA expression vectors (FIG. 11) and incubated with lys-azide for three days. Data were collected by flow cytometry and mean fluorescence intensities for each sample were plotted. […] The construct consisting of the 7SL WT tRNA (MFI=312) was included as a metric for low efficiency. In addition cell lines containing only the GFPY40 reporter were used as negative controls (MFI=0).

B1: 7SL B tRNA: tRNA-B downstream of the 7SL promoter 5′ region (nucleic acid)
DNA: CCCAGTTGATGACGTCACCATACCACAGCTTCTAGTGCTATTCTGCGCCGGTATCCGACCACCAGGAAACCTGATCATGTAGATCGAATGGACTCTAAATCCGTTCAGCCGGGTTCGATTCCCGGGGTTTCCGGACAAGTGCGGTTTTT
modifications: Synthetic sequence 7SL tRNA-B construct
notes: tRNA-B downstream of the 7SL promoter 5′ region
Q: With B1 as the molecule, how does the “GFP MFI, FIG. 9” value ([1]; 1 ug GFPY40 reporter and 1 ug tRNA expression plasmid) read?
A: 167,024

Q: And the “GFP MFI, FIG. 8” value ([1]; 1 ug PCR product of each construct, lys azide nnAA, three days)?
A: 265,396

Q: What about the “GFP MFI, FIG. 10” value ([1]; cells stably expressing WTpylRS, lys azide, three days) of the same molecule?
A: 520

Q: And the “GFP MFI, FIG. 11” value [2]?
A: 520
